Measurements: the DeepSol protein solubility set

Assay: soluble on expression in E. coli; label from the status in PepcDB or PDB records

Q: With “MLVTGLEILRKARAEGYGVGAFNTNNMEFTQAILEAAEEMKSPVILALSEGAMKYGGRALTRMVVALAQEARVPVAVHLDHGSSYESVLKALREGFTSVMIDKSHEDFETNVRETKRVVEAAHAVGVTVEAELGRLAGIEEHVAVDEKDALLTNPEEARIFMERTGADYLAVAIGTSHGAYKGKGRPFIDHPRLARIAELVPAPLVLHGASAVPQELVERFRAAGGEIGEASGIHPEDIKKAISLGIAKINTDTDLRLAFTALVRETLGKNPKEFDPRKYLGPAREAVKEVVKSRMELFGSVGRA” as the sequence, how does the “soluble on expression in E. coli” value read?
A: soluble

Q: For “MELAVHDATEDGAGYATAASSWVVVEPEFVVDVTDIRSFVQCPRLYYLNKLSGLPLKYPVTKGTIVHEVFGDLLRGRDLEASVAQRVDEAGLELGLLGRSRAEVEADVRDNASAIEGWLQQGRLTDEDEWRSEYTLVSERFGIKGRCDAIRRGMPVELKTGKNTNREPRFHDKVQAACYALMLDEHGVPADTGTLLYTKNAAVDRSEASGDLSPAKEFSIGRGFLEFVVRERNHLAALEASDGPPTGYEADAKCDYCFEQDTCMVVSGRLDQESKAGRIGDPVPAEERAYFDELYDAIEAERGAIHDEYRKLWEQSPDERAADDRAVVGLSPAEQTELPDGRWRLTATRPGSAASKIREGDRVLASDGDPVAGRAEMARVERLDADRVEVTTDEPVSLCRLDVYPSELSVDRMLTALHDAVLKSDQRRTDLLFDRASPRFEGGDHDLIPNNDAQNAAVNRALNAEDFALVHGPPGTGKTYTIATLVQAFVARGDRVLVSAFTNRAVDNALDALRQQGHEDIVRVGTETGVRADMQDLRLDRSGDPGERAAALRSAPVVAATTATCGSRILRELEFDVVLVDEASQLTEPDTLAAINRGARFVLVGDHEQLPPVVRSGGRLSKSLFERLHETYPEASVMLDQQYRMSQRIQAFSSREFYDGQLRPASSEVAGQRLTDVGVDPGGAVHGGVTFYDVPGTDDAHVDPAEADRVADVVTAYVDAGLDPGEIGVIAPFRAQVAEIGRRTPAGVAVDTVDRFQGSSKEVIVVSFVARGTLEGPIFEDHRRVNVALSRAKKSLVLVGDERALRSEPLYDRMIDWADMELEHHHHHH”, which “soluble on expression in E. coli” value is on record?
A: not soluble

Q: With “MYNALYLYCSEYKYEDSIMTISIRLPSDLETRLNNLAAKTGRTKSFYLREIIERGIEEAEDYYLASQVRERVRKGEGTFYSSEEVRKELGLDD” as the sequence, how does the “soluble on expression in E. coli” value read?
A: not soluble

Q: For “MNLGLCMADPDFGVYHHSSREESERLRYMARIMFTEAFGKIGIDQDADMNIIDVGCGLGFLTILCADYFKNSRITAIDTFSMGSLKDNSRERLIENLRLADVLDRVTVVEADITKPFNIEDKFDLAVSNLVFHNTGRQRFSVYRNVWNVLKCGSYFINADGFIRKNVASIFVDPFRADMSKISSMYEPEFAMEPKDQKRNAVWRYILVGLRSKCSDV”, which “soluble on expression in E. coli” value is on record?
A: not soluble

Q: Which “soluble on expression in E. coli” value does the source give for “MVNVRGPVLEVDDPKSVETSHGTSQLAEVVIRPERGAASPTTVTLWGKWTETVEYLAVGMELLATDLDERTFDGDTQYSTTGESAVVVEPDFLVDVTDIRGWVQCPRMYYLNKLTGLPLKYPVLKGTVVHEVFGDLLRGRDLESSIESRVAEAALDIGLLGETADAVADDVRQNAAAIQGWLQQGRFGEDSWRSEQTLISERFGIKGRADAVRRGMPVELKTGKNLKRSPRFQDKVQAACYGLLLADDIADPPDTGTLLYTKNSALDRSEESGDLSPAKEFSIGPGFLKYVLRVRNEIAAAEYDMSVPTGFEADANCDYCFEQDTCMVVSGRLDQESKAGQLGEPLPEPERAYFERLYRAIEEERREVHAEYRKLWEQSAAERADDDRALVDLDPLGREPLDGGRWALSARRTSDAVSKIREGDRVLASDGHPTQGTAELATVRHLDDEIVVVADEPFELRRIDVYPSELGVDRQLTALHDAVLRGDPDRKDVLFGRREPSFVGDHRPIIDNNESQNEAVNRALAAEDFALIHGPPGTGKTYTLAQTVQALVARGDRVLLSAFTNRAVDNAIEALEAQGFTDVLRWGSESGVRDDMQSYRFDRTGDPRERAAALRDAQVVAATTAACGSRALKQQQFDVAVIDEAGQLTEPGTFLATNRADRFVLVGDHEQLPPVVRAENDLQTSLFEQLIDDYPDAAVMLDRQYRMSQRIQYFASREFYDGQLRPANAEVASQRLADLDGVDVSTLPSALRDAVSFVDPGLEHHHHHH” here?
A: not soluble

Q: Which “soluble on expression in E. coli” value does the source give for “MKINRHILDNGLRLVHSQDESTQMVALNVLYNVGARDEHPEHTGFAHLFEHLMFGGSVNIPDYDMPLQLAGGENNAWTNNDITNYYLTVPRQNVETGFWLESDRMLSLDFSERSLEVQRGVVMEEFKQRCLNQPYGDVGHLLRPLAYRAHTYQWPTIGKDLSHIANATLEEVKAFFFRFYAPNNAVLAVTGNISFEEAVALTEKWFGPIPRREVPQRNLPQEPEQTEERRLTVERNVPLDSLFMAYHMCSHDHPDYYAFDILSDLLSNGRSSRLNQRLVQQKQLFSSIDAYISGSVDAGLFHISGKPAAGVSLEQAEAAVREELERLQQEPVDEQELEKVKNKFESTQIFGNINYLNVATNLAWFELLGRAEDMEKEVERYRAVTAGQLQKVAQSAFRKENGVILYYKKQIS” here?
A: not soluble

Q: For “NEVESGYYFTTLDHYIYEAEEANLGPGVVVVERQYIQDRIPSWTGPGFVRVPEGAYLEFFIDNIPYSMEYEILIRYEPQLPDHWEKAVITVQRPGKIPASSRCGNTVPDDDNQVVSLSPGSRYVVLPRPVCFEKGMNYTVRLELPQYTASGSDVESPYTFIDSLVLMPYCKSLDIFTVGGSGDGEVTNSAWETFQRYRCLENSRSVVKTPMTDVCRNIIFSISALIHQTGL”, which “soluble on expression in E. coli” value is on record?
A: soluble

Q: Which “soluble on expression in E. coli” value does the source give for “MRDIVIIGHKAKTSGDFSLNDLPGSAGRMDILCRCVSSALFLSFGMRRDVNVHLLLLGEPDPGKIIRFEGLHLRYLNPDERSSGSLIQKALLKNAAGQDIRSTPGVWTRTGDLNSLLASFEGRTLLYLREDGKDFREIAREIQDPVFILGDHTGVTEEEEKQLLEAGAQVISVGPISLHSNHCITLIHNELDRAEAERGEIPGGNISRPED” here?
A: not soluble

Q: Which “soluble on expression in E. coli” value does the source give for “MAMLGDQSFAAVKRDVPVDPDRQANDYVRCVADAVTREVGGSWEVVLFRQDSPNAFALPGGKIGVHTGMLRIARNQDQLATVLAHEVAHVLSRHANERLSQQVAVQQGLNAMQALADPSSSSGKTLMGLLGLGAQYGILMPYSRTQESEADLLGLDLMARAGFDPRQSIELWNNMANSGGGQPIEFLSTHPSHATRMQDLAKRMPRALDLQRQAAAQGHRPQCDGIRAGGGLEHHHHHH” here?
A: not soluble

Q: For “MNDNKILVVNAGSSSIKFQLFDYHKKVLAKALCERIFVDGFFKLEFNEQKVEEKVAFPDHHAAVTHFLNTLKKHKIIQELSDIILVGHRVVQGANYFKDSVIVDAEALAKIKEFIKLAPLHNKPEADVIEIFFKEVPSAKNVAVFDTTFHTTIPQENYLYAVPRSWEQKHLVRRYGFHGTSYKFINNYLEKHLNKQNLNLIVCHLGNGASVCAIKNGKSFNTSMGFTPLEGLIMGTRSGDLDPAIIGYVAEQENMSASDVVNALNKKSGMLALTGASDMRDVFAKPQENAVAIKMYVNRVADYIAKYLNQLEGNIDGLVFTGGIGENASDCVELFINAVKSLGFATDLKLFVKYGDSCVVSTPQSKYKIYRVRTNEELMIVEDSIRLTQK”, which “soluble on expression in E. coli” value is on record?
A: soluble

Q: For “MKLAVLGTGMIVKEVLPVLQKIDGIDLVAILSTVRSLTTAKDLAKAHHMPLATSKYEAILGNEEIDTVYIGLPNHLHFAYAKEALLAGKHVICEKPFTMTAGELDELVVIARKRKLILLEAITNQYLSNMTFIKEHLDQLGDIKIVECNYSQYSSRYDAFKRGDIAPAFNPKMGGGALRDLNIYNIHFVVGLFGRPKTVQYLANVEKGIDTSGMLVMDYEQFKVVCIGAKDCTAEIKSTIQGNKGSLAVLGATNTLPQVQLSLHGHEPQVINHNKHDHRMYEEFVAFRDMIDQRDFEKVNQALEHSRAVMAVLERAVHS”, which “soluble on expression in E. coli” value is on record?
A: not soluble

Q: With “MGSDKIHHHHHHMLVYPSGIDLSTSTLRYLSDLLRARRRERGTRWRRLTTDRQALLALAHLRCGHTYAQLAAGFGIGLATVYRYIVEAVEVLAALAPTLQQAMTFAANKAFVILDGTLLHIDRIAADRPYYSGKHKRHGMNVQVIADAFGRLLWASPALPGAVHDIKAARIHGIIEALTQAGIRTWADKGYQGAQGTIRVPYRGRWSTLPAGKRAVNSSHAKIRAVGEQANATLKSWRLLRKLRCSTTRITDIVKAVLALHLATAA” as the sequence, how does the “soluble on expression in E. coli” value read?
A: not soluble

Q: With “MGSDKIHHHHHHMAINYGVFTISLDFEMYWGVRDKRAISDYAVNLEGIRPAIAGMLDIFTEFNVHATWATVGFLFFRNSEHLSANLPKAIPTYTDINLSPYEYIKNKKLDDRYHFAPDLIQKIISTSGQEVASHTFSHYYCLEDGQTIDQFESDLALAVDTASRLGYKLSSLVFPRNQWNSEYLSVLNKYNIKSFRGNELNWMNSASGQEGQSYFKRAARLLDSYINISGFNTHDISTCLENKPFNFPSSRFLRPYNKKLSFFDCLKLRRIKKAMTHAAKNNELFHLWWHPHNFGAETSKNLDMLREILDHYQYLNKNFGMRSLNMEELSFLEKAYD” as the sequence, how does the “soluble on expression in E. coli” value read?
A: not soluble

Q: Which “soluble on expression in E. coli” value does the source give for “LTSSNALRGDAHSRLAAHRGLLERTSRTTRVAGILRDAIIDGTFRPGARLSEPDICAALDVSRNTVREAFQILIEDRLVAHELNRGVFVRVPTAEDITELYICRRVVECAGVNGFDPATGDLSRVAEALDLADERYAVEDWTGVGTADIHFHSALASLNNSNRIDELMRSVWNEARLVFHVMDDAHRFHGPYLTRNHEIYDALAAGNTEAAGQLLKTYLEDAEAQILGAYRPVSG” here?
A: soluble

Q: Which “soluble on expression in E. coli” value does the source give for “MAHHHHHHMGTLEAQTQGPGSMVTANSTVKVGNVTFSNSAPLALIAGPCQMETRDHAFEMAGRLKEMTDKLGIGLVYKSSFDKANRTSLKAARGIGLEKALEVFSDLKKEYGFPVLTDIHTEEQCAAVAPVVDVLQIPAFLCRQTDLLIAAARTGRVVNVKKGQFLAPWDMKNVLAKITESGNPNVLATERGVSFGYNTLVSDMRALPIMAGLGAPVIFDATHSVQQPGGQGGSTGGQREFVETLARAAVAVGVAGFFIETHEDPDNAPSDGPNMVPIDKMPALLEKLMAFDRIAKAL” here?
A: soluble

Q: With “MNEQYSALRSNVSMLGKVLGETIKDALGEHILERVETIRKLSKSSRAGNDANRQELLTTLQNLSNDELLPVARAFSQFLNLANTAEQYHSISPKGEAASNPEVIARTLRKLKNQPELSEDTIKKAVESLSLELVLTAHPTEITRRTLIHKMVEVNACLKQLDNKDIADYEHNQLMRRLRQLIAQSWHTDEIRKLRPSPVDEAKWGFAVVENSLWQGVPNYLRELNEQLEENLGYKLPVEFVPVRFTSWMGGDRDGNPNVTADITRHVLLLSRWKATDLFLKDIQVLVSELSMVEATPELLALVGEEGAAEPYRYLMKNLRSRLMATQAWLEARLKGEELPKPEGLLTQNEELWEPLYACYQSLQACGMGIIANGDLLDTLRRVKCFGVPLVRIDIRQESTRHTEALGELTRYLGIGDYESWSEADKQAFLIRELNSKRPLLPRNWQPSAETREVLDTCQVIAEAPQGSIAAYVISMAKTPSDVLAVHLLLKEAGIGFAMPVAPLFETLDDLNNANDVMTQLLNIDWYRGLIQGKQMVMIGYSDSAKDAGVMAASWAQYQAQDALIKTCEKAGIELTLFHGRGGSIGRGGAPAHAALLSQPPGSLKGGLRVTEQGEMIRFKYGLPEITVSSLSLYTGAILEANLLPPPEPKESWRRIMDELSVISCDVYRGYVRENKDFVPYFRSATPEQELGKLPLGSRPAKRRPTGGVESLRAIPWIFAWTQNRLMLPAWLGAGTALQKVVEDGKQSELEAMCRDWPFFSTRLGMLEMVFAKADLWLAEYYDQRLVDKALWPLGKELRNLQEEDIKVVLAIANDSHLMADLPWIAESIQLRNIYTDPLNVLQAELLHRSRQAEKEGQEPDPRVEQALMVTIAGIAAGMRNTG” as the sequence, how does the “soluble on expression in E. coli” value read?
A: soluble
